The supplement of paper PMC12042874
± gives the uncertainty stated by the source.

Assay: amyloid nucleation score (Sup35N fusion, yeast selection) (log enrichment); library NNK1; higher = more nucleation; inactive = no reads after selection
Method in brief: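 Peptides of 20 random codons fused to Sup35N were expressed in psi-negative yeast, induced 24 hours with 100 μM copper sulfate, then grown 7 days at 30°C on medium lacking adenine and uracil. Input and output plasmid inserts were Illumina-sequenced. Nucleation score is the DiMSum log enrichment of output over input reads, centred on the mode score of non-aggregating sequences, excluding sequences with under 100 input reads. Random libraries had three technical output replicates.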

Substance | amyloid nucleation score
RCYSVRCTFQVDYARIHANE | 1.99 ± 0.17
RDDDPYVQDRPLRDFVFKKY | -0.472 ± 0.35
RDPYFRQCTEKQI | 1 ± 0.85
RDVCLQSGMVVFYF | 6.905 ± 0.061
RDWKSFSVCVFLIFIACNTG | -0.605 ± 0.4
RECFRQANFCFMGLSTLGKS | -0.88 ± 0.79
REEAVSVGHSRFGFWIVFGG | -0.264 ± 0.36
REGNVSYYSFGL | -1.48 ± 1.4
RELNSRPVFYLLGMDQSIGA | 4.43 ± 0.14
REPIYFSVSMIWGTLASPVT | -0.447 ± 0.98
RERVISVWGL | -0.197 ± 0.45
RETIPCVEVFTHRSLDFL | 1.15 ± 0.83
REVSMRDGGPVT | 0.298 ± 0.54
REVSVVNLYRCFDGIRSKLT | 0.219 ± 0.23
REWSSYRIVRWYEMCYISTS | -0.158 ± 0.84
RFARHCSRIS | 0.769 ± 0.36
RFEWLCGVFSGALPKGAWLK | -0.144 ± 0.37
RFFGFS | -0.63 ± 1.1
RFFISYTFSWPRYLVGKDLL | -0.936 ± 0.34
RFFNTRSGKSWPLKYLTEFF | 0.042 ± 0.34
RFFYWG | 0.375 ± 1.2
RFILPVVGSSHLINSLADSL | -0.8 ± 1.4

Substance | amyloid nucleation score
RFIWFLVYVNTCYARC | 2.86 ± 0.25
RFIYE | -0.543 ± 0.82
RFLTGCICAQSLRQLTS | -0.075 ± 0.48
RFMKPTMVWL | 0.005 ± 1.4
RFMSTSLFLMVSNELLSPLM | 1.27 ± 0.16
RFMTHLVRRLYAFGMSF | inactive
RFQGGWSRF | 3.68 ± 0.11
RFRNGLNLFRMSNMFSNLKH | -0.129 ± 1.1
RFRVEGPMYFICICKRLFTY | -0.555 ± 0.44
RFVIVEVSWLDSLLRLSWED | 0.277 ± 0.99
RFVLKYSSFFMFTIRWCVVV | -0.027 ± 0.44
RFYIGIVIQRTYGRC | 2.79 ± 0.071
RGEILCWWIGFYFVAVK | 0.149 ± 0.32
RGGGAEKLLQSTCNSYVVWL | 3.66 ± 0.061
RGGNLSRAFNYVRYIITHKN | 0.145 ± 0.46
RGILNRVTLILDLRVHSSSD | 0.504 ± 0.32
RGITNCVQCPVIPWFLRYYG | -0.401 ± 0.31
RGRDHCYTTDWNGYRVMVPL | 0.58 ± 0.51
RGSTLSGVYCAENRASGFDS | 0.93 ± 0.33
RGSVIWRRRWTTESWSSYFG | 1.25 ± 0.72
RGYMCHCRVVSACFLYRKVQ | -0.044 ± 0.25
RGYQNSLFTGMRRSSGSWSI | 0.43 ± 0.77

Substance | amyloid nucleation score
RGYSSTPRFVNIACYMVQSL | 2.45 ± 0.26
RHADIWSDFPR | 1.53 ± 0.7
RHFRMGRHRFEGWVLTGASG | 0.194 ± 0.38
RHKYMWM | 1.46 ± 0.81
RHRDLGWRVIRWRAFMTSLW | -1.31 ± 2.1
RHWDIRSGHNLWQMVG | -0.55 ± 0.38
RIFFYTISYPLILIKVFCYL | inactive
RIGGETGCV | 0.216 ± 0.27
RIHRVHRKF | -0.33 ± 0.38
RIIITLH | 0.264 ± 0.31
RIILGETGAALWWRI | 4.61 ± 0.079
RIISRCFVMDVWFERQYVTR | 1.96 ± 0.18
RIKYAWFCVFGTWNRIRVRI | 1.1 ± 0.68
RILCHLTNRWFEFDEVLVGV | 0.835 ± 0.48
RILRDQTWIPSMATDSILVC | -1.23 ± 0.79
RIMMMGQLTFVYMGQHSSMV | -0.062 ± 0.57
RINVYII | 3.25 ± 0.19
RISYTDCMVEQLHPNQLWQN | -0.069 ± 0.52
RIWSLRPFRSEYLRVCFFVS | 0.437 ± 0.78
RIYLRFYLIIR | 1.07 ± 0.85
RKALYA | -0.117 ± 0.38
RKFVC | -0.729 ± 1.7

Substance | amyloid nucleation score
RKRSSRVIDVTGRWAVLTYP | 0.074 ± 0.46
RKSEGIDVCGYNISAIYFKC | 0.142 ± 0.64
RKYQQGSLHDSGIKNHFFRV | -0.97 ± 1.7
RLASMREHLVWYRRGFRVCC | 0.725 ± 0.58
RLCAINHPLCTFSQTMAWVH | 0.272 ± 0.29
RLFPYQFM | -0.286 ± 0.63
RLFWLRNLPLWASYK | 0.07 ± 0.47
RLGCGSM | 0.769 ± 0.45
RLGPYSATWFVGKGKREGGV | 0.571 ± 0.55
RLHMRRRPFVNTHVS | 0.54 ± 0.42
RLHSS | -0.036 ± 0.32
RLIHRPVWV | 0.526 ± 0.48
RLKHDWWITVCLYRVQLNTV | 1.59 ± 0.55
RLLLYG | inactive
RLLRPFGWLANSRLTTVWFH | -0.122 ± 0.68
RLLWRWWRAVDVRGHDRLNL | -0.306 ± 1.2
RLNLSLSVR | 0.517 ± 0.55
RLNNLWKFDEVLLGSSNRTR | -1.24 ± 0.44
RLNNRRFLSWRCTNNQCWRV | -0.159 ± 0.86
RLNWVYSRNNASLSGVYMKR | 0.116 ± 0.24
RLRDTNVYTTQFFVFYLMNW | 6.677 ± 0.051
